The target of the assay is T1, CFP tagged hABHD5 (FCCS) (human), Q8WTS1.
T1 chain: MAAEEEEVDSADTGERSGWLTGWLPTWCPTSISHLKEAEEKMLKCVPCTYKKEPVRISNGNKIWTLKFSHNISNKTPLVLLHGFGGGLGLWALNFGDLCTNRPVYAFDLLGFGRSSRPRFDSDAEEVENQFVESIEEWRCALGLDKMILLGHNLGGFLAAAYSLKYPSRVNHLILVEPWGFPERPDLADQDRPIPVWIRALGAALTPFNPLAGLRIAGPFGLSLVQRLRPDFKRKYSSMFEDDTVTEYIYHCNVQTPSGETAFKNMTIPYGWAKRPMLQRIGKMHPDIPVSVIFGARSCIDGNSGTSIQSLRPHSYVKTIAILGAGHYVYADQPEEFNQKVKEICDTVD
The assay is described as follows: fluorescence cross-correlation spectroscopy. Particulars: remark: other sources report otherwise.

B1: hPNPLA3 WT-EYFP, Q9NST1 1-481 (natural protein)
chain: MYDAERGWSLSFAGCGFLGFYHVGATRCLSEHAPHLLRDARMLFGASAGALHCVGVLSGIPLEQTLQVLSDLVRKARSRNIGIFHPSFNLSKFLRQGLCKCLPANVHQLISGKIGISLTRVSDGENVLVSDFRSKDEVVDALVCSCFIPFYSGLIPPSFRGVRYVDGGVSDNVPFIDAKTTITVSPFYGEYDICPKVKSTNFLHVDITKLSLRLCTGNLYLLSRAFVPPDLKVLGEICLRGYLDAFRFLEEKGICNRPQPGLKSSSEGMDPEVAMPSWANMSLDSSPESAALAVRLEGDELLDHLRLSILPWDESILDTLSPRLATALSEEMKDKGGYMSKICNLLPIRIMSYVMLPCTLPVESAIAIVQRLVTWLPDMPDDVLWLQWVTSQVFTRVLMCLLPASRSQMPVSSQQASPCTPEQDWPCWTPCSPKGCPAETKAEATPRSILRSSLNFFLGNKVPAGAEGLSTFPSFSLEKSL
Molecule B1 gave a percent of ABHD5 co-diffusing with PNPLA3 of 24% and a percent of PNPLA3 co-diffusing with ABHD5 of 78%.

(Values after paper PMC11601262.)
